From patent US20230295310A1 (ABCELLERA BIOLOGICS, published 2023)

B1: mAb 128 (antibody, V domains shown)
VH: EVQLVESGGGLVQPGRSLRLSCAASGFTFDDYTMHWVRQAPGKGLEWVSGISWNSGSIGYADSVKGRFTISRDNAKNSLYLQMNSLRAEDTALYYCAKDSSGYGYYYYYSMDVWGKGTTVTVSS
VL: EIVMTQSPATLSVSPGERATLSCRASQSVSSNLAWYQQKPGQAPRLLIYGASTRATGIPARFSGSGSGTEFTLTISSLQSEDFAVYYCQLYYNWPHFGQGTRLAIK
B2: mAb 118 (antibody, V domains shown)
VH: EVQLVESGGGLVQPGRSLRLSCAASGFTFDDYTMHWVRQAPGKGLEWVSGISWNSGSIGYADSVKGRFTISRDNAKNSLYLQMNSLRAEDTALYYCSKDSSGYGYYLNYSLDVWGKGTTVTVSS
VL: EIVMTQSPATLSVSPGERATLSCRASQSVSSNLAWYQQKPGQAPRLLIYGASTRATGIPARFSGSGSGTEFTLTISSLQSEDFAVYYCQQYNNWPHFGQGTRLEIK
B3: mAb 132 (antibody, V domains shown)
VH: DVQLVESGGGTVKTGGSLRLSCVASGFSFKKAWMNWVRQAPGKGLEWVGRIKKNSDGGTADYAAPVKGRFTISRDDSKKTLYLQMNSLQTEDTAVYYCTTLDSSSWYVGYYYMDVWGKGTTVTVSS
VL: DIQMTQSPSSVSASVGDRVIITCRASQDINNWLAWYQQKPGIAPKLLIYTASSLQSGVPSRFSGSGSVSDFTLTIGSLQPEDFATYYCQQAHSLPITFGQGTRLEIK
B4: mAb 164 (antibody, V domains shown)
VH: EVQLVESGGGLVKTGGSLRLSCVASGFSFKKAWMNWVRQAPGKGLEWVGRIKRNTDGGTADYAAPVKGRFTLSRDDSKKTLFLQMNSLKTEDTAVYYCTTLDSSSYYVGYYYMDVWGKGTTVTVSS
VL: DIQMTQSPSSVSASVGDRVTITCRASQDIKNWLAWYQQKPGKAPKLLIYTASSLQSGVPSRFSGSGSGTDFTLTIGSLQPEDFATYYCQQAHSLPITFGQGTRLEIK
B5: mAb 133 (antibody, V domains shown)
VH: EVQLVESGGGLVKTGGSLRLSCVASGFSFKKAWMSWVRQAPGKGLEWVGRIKRNTDGGTADYAAPVKGRFTLSRDDSKKTLFLQMNSLKTEDSAVYYCVTLDSSSYYVGYYYMDVWGKGTTVTVSS
VL: DIQMTQSPSSVSASVGDRVSITCRASQDINNWLAWYQQKPGKAPKLLIYTASSLQSGVPSRFSGSGSGTDFTLTIGSLQPEDFATYYCQQAHSLPITFGQGTRLEIK
B6: mAb 166 (antibody, V domains shown)
VH: EVQLVESGGGLVKTGGSLRLSCVASGFSFKKAWMNWVRQAPGRGLEWVGRIKRNTDGGTTDYAAPVKGRFTLSRDDSKNMLYLQMNSLKTEDTAVYYCTTLDSSSLYVGYYYMDVWGKGTTVTVSS
VL: DIQMTQSPSSVSASVGDRVTITCRASQDINNWLAWYQQKPGKAPKLLIYTASSLQSGVPSRFSGSGSGTDFTLTISSLQPEDFATYFCQQAHSLPITFGQGTRLEIT
B7: mAb 157 (antibody, V domains shown)
VH: EVQLVESGGGLVKTGGSLRLSCVASGFSFKKAWMNWVRQAPGKGLEWVGRIKRTADGGATDYAAPVKGRFTLSRDDSKNTLYLQMNSLKTEDTAVYYCTTLDSSSWYVGYYYMDVWGKGTTVTVSS
VL: DIHMTQAPSSVSASVGDRVTFTCRASQDINNWLAWYQQKPGKAPKLLIYTASSLQSGVPSRFSGSGSGTDFTLTISSLQPEDFATYYCQQAHSLPITFGQGTRLGIK
B8: mAb 169 (antibody, V domains shown)
VH: EVQLVESGGGLVKTGGSLRLSCVASGFSFKKAWMNWVRQAPGKGLEWVGRIKRNTDGGTADYAAPVKGRFTLSRDDSKKTLFLQMNSLKTEDTAVYYCTTLDSSSYYVGYYYMDVWGKGTTVTVSS
VL: DIQMTQSPSSVSASVGDRVIITCRASQDINNWLAWYQQKPGKAPKLLIYTASSLQSGVPSRFSGSGSGTDFILTIGSLQPEDFATYYCQQAHSLPITFGQGTRLEIK
B9: mAb 165 (antibody, V domains shown)
VH: EVQLVESGGGLVKTGGSLRLSCVASGFSFKKAWMNWVRQAPGKGLEWVGRIKRNTDGGTADYAAPVKGRFTLSRDDSKRTLYLQMNSLKTEDTAVYYCTTLDSSSRYVGYYYMDVWGKGTTVTVSS
VL: DIQMTQSPSSVSASVGDRVIITCRASQDINNWLAWYQQKPGKVPKLLIYTASSLQSGVPSRFSGSGSGTDFTLTIGSLQPEDFATYYCQQAHSLPITFGQGTRLEIK
B10: mAb 163 (antibody, V domains shown)
VH: EVQLVESGGGLVKTGGSLRLSCVASGFSFKKAWMNWVRQVPGKGLEWVGRIKRNTDGGTADYAAPVKGRFTLSRDDSKKTLFLQMNSLKTEDTAVYYCTTLDSSSYYVGYYYMDVWGKGTTVTVSS
VL: DIQMTQSPSSVSASVGDRVIITCRASQDINNWLAWYQQKPGKAPKLLIYTASSLQSGVPSRFSGSGSGTDFTLTIGSLQPEDFATYYCQQAHSLPITFGQGTRLEIK
B11: mAb 156 (antibody, V domains shown)
VH: EVQLVESGGGLVKTGGSLRLSCVASGFSFKKAWMNWVRQAPGKGLEWVGRIKRNTDGGTADYAAPVKGRFTLSRDDSKKTLFLQMNSLKTEDTAVYYCTTLDSSSYYVGYYYMDVWGKGTTVTVSS
VL: DIQMTQSPSSVSASVGDRVIITCRASQDINNWLAWYQQKAGKAPKLLIYTASSLQSGVPSRFSGSGSGTDFTLTIGSLQPEDFATYYCQQAHSLPITFGQGTRLEIK
B12: mAb 155 (antibody, V domains shown)
VH: EVQLVESGGGLVKTGGSLRLSCVASGFSFKKAWMNWVRQAPGKGLEWVGRIKRNTDGGTADYAAPVKGRFTLSRDDSKKTLFLQMNSLKTEDTAVYYCTTLDSSSYYVGYYYMDVWGKGTTVTVSS
VL: DIQMTQSPSSVSASVGDRVIITCRASQDINNWLAWYQQKPGKAPKLLIYTASSLQSGVPSRFSGSGSGTDFTLTIGSLQPEDFATYYCQQAHSLPISFGQGTRLDIK

Assays:
[1] = biological target: T1, human CD3 expressed on cells (human, UniProt P07766 23-207; P04234 22-171; P09693 23-182); assay: flow cytometry, 25 nM
T1 construct: whole, on cells; CD3 complex on Jurkat cells and on human primary T cells
Procedure, shortened: (§1)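 Antibodies at 25 nM in PBS + 2% FBS were incubated with CD3-expressing cells for 30 minutes at 4° C and analysed by flow cytometry. Median fluorescence intensity was normalized to isotype control to give fold over isotype (FOI); FOI ≥10 counted as binding.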

[2] = biological target: T2, cynomolgus monkey CD3 expressed on primary T cells (cynomolgus monkey, UniProt Q95LI5 22-198; Q95LI8 22-171; Q95LI7 23-181); assay: flow cytometry, 25 nM, cyno primary T cells
T2 construct: whole, on cells; CD3 complex on purified cynomolgus monkey T cells; also called cyno CD3
Procedure, shortened: as §1

T1 sequence (P07766 23-207, chain 1 of 3): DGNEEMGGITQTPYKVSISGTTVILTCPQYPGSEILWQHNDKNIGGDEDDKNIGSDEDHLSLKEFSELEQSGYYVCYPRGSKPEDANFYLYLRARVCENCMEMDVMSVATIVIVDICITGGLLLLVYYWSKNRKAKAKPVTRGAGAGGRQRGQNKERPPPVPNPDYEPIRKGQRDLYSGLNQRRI
T1 sequence (P04234 22-171, chain 2 of 3): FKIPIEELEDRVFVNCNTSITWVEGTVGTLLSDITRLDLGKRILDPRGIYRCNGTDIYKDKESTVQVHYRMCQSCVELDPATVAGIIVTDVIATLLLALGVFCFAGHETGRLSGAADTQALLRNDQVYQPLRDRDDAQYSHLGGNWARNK
T1 sequence (P09693 23-182, chain 3 of 3): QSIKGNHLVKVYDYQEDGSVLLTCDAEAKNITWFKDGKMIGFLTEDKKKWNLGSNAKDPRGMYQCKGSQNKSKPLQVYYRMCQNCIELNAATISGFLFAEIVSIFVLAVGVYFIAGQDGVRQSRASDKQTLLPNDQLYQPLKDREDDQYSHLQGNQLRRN
T2 sequence (Q95LI5 22-198, chain 1 of 3): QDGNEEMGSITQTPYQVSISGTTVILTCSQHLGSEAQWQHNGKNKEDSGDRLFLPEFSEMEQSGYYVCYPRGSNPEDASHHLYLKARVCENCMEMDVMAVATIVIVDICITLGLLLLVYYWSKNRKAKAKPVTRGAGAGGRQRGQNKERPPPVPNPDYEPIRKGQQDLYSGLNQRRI
T2 sequence (Q95LI8 22-171, chain 2 of 3): as the sequence (P04234 22-171, chain 2 of 3) above, with I5V, N15K, I20V, S32T, D33N, I34N, T64A, S74N, V83L, H141R counted along it
T2 sequence (Q95LI7 23-181, chain 3 of 3): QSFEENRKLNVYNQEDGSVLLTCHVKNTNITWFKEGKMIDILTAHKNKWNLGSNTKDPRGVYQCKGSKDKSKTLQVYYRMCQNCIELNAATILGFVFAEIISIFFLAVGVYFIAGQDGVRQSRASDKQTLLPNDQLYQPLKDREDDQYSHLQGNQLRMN

Binder | Human primary T Cell Binding (FOI) [1] [FOI] | Jurkat Cell Binding (FOI) [1] [FOI] | binding result [2]
B1 | 101 | 97.1 | no binding (tested: FOI >=10 = positive)
B2 | 84.7 | 83.8 | no binding (tested: FOI >=10 = positive)
B3 | 164 | 157 | no binding (tested: FOI >=10 = positive)
B4 | 237 | 137 | no binding (tested: FOI >=10 = positive)
B5 | 169 | 161 | no binding (tested: FOI >=10 = positive)
B6 | 266 | 159 | no binding (tested: FOI >=10 = positive)
B7 | 265 | 163 | no binding (tested: FOI >=10 = positive)
B8 | 264 | 173 | no binding (tested: FOI >=10 = positive)
B9 | 241 | 154 | no binding (tested: FOI >=10 = positive)
B10 | 278 | 118 | no binding (tested: FOI >=10 = positive)
B11 | 243 | 171 | no binding (tested: FOI >=10 = positive)
B12 | 274 | 163 | no binding (tested: FOI >=10 = positive)
